Our source for the impairment of migratory response to CCL25 after CCR9 siRNA, melanoma line ML and impairment of migratory response to CCL25 after CCR9 siRNA, melanoma line MP values is patent US20120301477A1.

In the experiment the target is CCR9 (chemokine (C-C motif) receptor 9) (human) (UniProt P51686). The experiment in a line: cell-based or functional assay.
Chain of UniProt P51686 (P51686 whole entry): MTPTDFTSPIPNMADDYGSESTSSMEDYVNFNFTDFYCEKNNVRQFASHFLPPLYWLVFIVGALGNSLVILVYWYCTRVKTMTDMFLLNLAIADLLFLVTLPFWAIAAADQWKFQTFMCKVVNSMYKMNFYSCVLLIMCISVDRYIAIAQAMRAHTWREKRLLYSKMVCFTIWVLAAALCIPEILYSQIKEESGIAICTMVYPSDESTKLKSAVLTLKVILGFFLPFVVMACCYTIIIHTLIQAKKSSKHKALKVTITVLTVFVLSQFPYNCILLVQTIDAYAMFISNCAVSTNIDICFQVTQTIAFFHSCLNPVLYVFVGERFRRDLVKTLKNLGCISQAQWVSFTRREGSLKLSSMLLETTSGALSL

In turn, “Human recombinant CCL25 (from UniProt O15444 24-150) (ligand)” displayed an impairment of migratory response to CCL25 after CCR9 siRNA, melanoma line ML of 76% and an impairment of migratory response to CCL25 after CCR9 siRNA, melanoma line MP of 63%.
